From US20240327522A1 (Genentech, published 2024) come the findings set out here.

Where only a bound is given, the exact number is not on record here.

For test [1], the target named is human αvβ8 endogenously expressed on cells (human). The experiment in a line: cell-based or functional assay.
Test [2] shares this target.
Test [3] concerns the target recombinant human αvβ8 protein (PARS-17102) (human). In words: SPR, Biacore T200, anti-murine Fc capture (murine Fc format), human αvβ8 analyte 0-50 nM, 37 C, 1:1 model (FIG. 10).
For test [4] the target is unchanged. The experiment in a line: SPR, Biacore kinetic screen at 37 °C, 1:1 binding fit; antibody as ligand, hu.aVb8-17102 as sample; in the presence of divalent cations according to.
The target is the same in test [5]. The experiment in a line: SPR, Biacore T200, anti-murine Fc capture (murine Fc format), human αvβ8 analyte 0-50 nM, 37 C, 1:1 model (FIG. 10); below the instrument's detection limit.
Test [6] addresses T1, recombinant human αvβ8 protein (PARS-17102) (human).
T1 construct: also called hu.aVb8.17102; not shown: C-terminal acid/basic coils and any purification tags
T1 alpha: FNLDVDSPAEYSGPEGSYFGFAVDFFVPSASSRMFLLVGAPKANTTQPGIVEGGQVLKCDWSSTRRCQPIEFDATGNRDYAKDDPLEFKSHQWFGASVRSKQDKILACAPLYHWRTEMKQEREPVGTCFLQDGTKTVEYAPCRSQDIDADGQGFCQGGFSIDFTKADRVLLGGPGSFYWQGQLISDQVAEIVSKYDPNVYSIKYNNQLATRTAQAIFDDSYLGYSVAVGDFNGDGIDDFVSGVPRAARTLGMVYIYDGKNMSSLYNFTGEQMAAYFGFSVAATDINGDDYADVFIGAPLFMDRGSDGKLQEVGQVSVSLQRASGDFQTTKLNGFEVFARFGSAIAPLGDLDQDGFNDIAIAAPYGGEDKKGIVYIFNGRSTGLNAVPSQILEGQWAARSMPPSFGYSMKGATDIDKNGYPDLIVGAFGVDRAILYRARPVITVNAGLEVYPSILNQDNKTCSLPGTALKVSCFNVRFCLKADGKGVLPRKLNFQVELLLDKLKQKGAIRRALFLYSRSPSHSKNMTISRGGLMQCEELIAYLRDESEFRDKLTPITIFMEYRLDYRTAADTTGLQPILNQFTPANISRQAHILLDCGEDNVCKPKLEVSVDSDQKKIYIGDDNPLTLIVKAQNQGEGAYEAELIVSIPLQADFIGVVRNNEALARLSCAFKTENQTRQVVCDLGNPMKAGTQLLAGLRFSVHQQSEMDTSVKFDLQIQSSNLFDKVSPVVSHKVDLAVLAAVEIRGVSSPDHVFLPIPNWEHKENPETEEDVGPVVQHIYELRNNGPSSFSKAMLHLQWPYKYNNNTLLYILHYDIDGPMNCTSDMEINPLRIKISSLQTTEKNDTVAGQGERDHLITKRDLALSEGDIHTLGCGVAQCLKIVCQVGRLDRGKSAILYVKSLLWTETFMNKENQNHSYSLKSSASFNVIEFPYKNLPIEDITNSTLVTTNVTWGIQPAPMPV
T1 beta: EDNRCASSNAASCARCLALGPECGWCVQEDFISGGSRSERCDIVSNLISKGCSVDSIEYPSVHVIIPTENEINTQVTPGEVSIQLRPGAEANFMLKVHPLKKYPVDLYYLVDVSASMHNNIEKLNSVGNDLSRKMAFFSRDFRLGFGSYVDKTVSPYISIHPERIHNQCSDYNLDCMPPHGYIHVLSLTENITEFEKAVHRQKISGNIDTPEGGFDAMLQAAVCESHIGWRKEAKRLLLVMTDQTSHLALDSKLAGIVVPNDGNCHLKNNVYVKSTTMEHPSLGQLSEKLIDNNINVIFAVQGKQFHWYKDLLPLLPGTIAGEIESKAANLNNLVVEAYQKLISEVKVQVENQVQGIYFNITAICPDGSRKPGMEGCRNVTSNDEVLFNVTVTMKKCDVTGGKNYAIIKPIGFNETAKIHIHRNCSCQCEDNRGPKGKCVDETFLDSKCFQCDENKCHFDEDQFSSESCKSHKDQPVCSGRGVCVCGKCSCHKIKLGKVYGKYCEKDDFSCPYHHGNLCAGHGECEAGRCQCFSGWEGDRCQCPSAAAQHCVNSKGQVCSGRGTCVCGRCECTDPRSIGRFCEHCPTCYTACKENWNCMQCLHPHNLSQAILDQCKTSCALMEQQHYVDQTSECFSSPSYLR
In words: SPR, Biacore T200, antibody captured on protein A chip, aVb8 as analyte, 37 C, 1:1 Langmuir model. The protocol: (§1) The binding affinity of the antibodies was determined by BIAcore™ T200 machine. For kinetics measurements, antibodies were captured on research grade protein A chip (Cytiva, USA) to achieve approximately 60 RU. Ten-fold serial dilutions of human, murine and cyno aVb8 were injected in the same running buffer as above at 37° C. with a flow rate of 100 μL/min. Association rates (ka) and dissociation rates (kd) were calculated using a 1:1 Langmuir binding model (BIAcore™ T200 Evaluation Software version 2.0). The equilibrium dissociation constant (KD) was calculated as the ratio kd/ka. […]

Test [7] addresses T2, recombinant mouse αvβ8 protein (PARS-17103) (murine, UniProt P43406 31-988; Q0VBD0 43-681, limits assumed).
T2 construct: Made in house; also called mu.aVb8.17103
The test is described as above. The method, then:
as §1

For test [8], the target named is T3, cyno.aVb8.13650 (cynomolgus, UniProt A0A2K5WCD3 31-992; G7P0S0 43-684).
T3 construct: Carries another lot/construct number than cyno.aVb8-19393; kept apart; also called cynomolgus αvβ8
The test is described as above. The protocol:
as §1

For test [9], the target named is T1, recombinant human αvβ8 protein …. The experiment in a line: SPR, Biacore kinetic screen at 37 °C, 1:1 binding fit flagged with a warning sign; antibody as ligand, hu.aVb8-17102 as sample; in the presence of divalent cations according to. On the technique in general: In SPR one partner is held on a chip, and binding of the other changes the refractive index at the surface.

The target is the same in test [10]. The experiment in a line: SPR, Biacore kinetic screen at 37 °C, 1:1 binding fit; antibody as ligand, hu.aVb8-17102 as sample; in the presence of divalent cations according to.

T2 sequence (P43406 31-988 limits assumed, chain 1 of 2): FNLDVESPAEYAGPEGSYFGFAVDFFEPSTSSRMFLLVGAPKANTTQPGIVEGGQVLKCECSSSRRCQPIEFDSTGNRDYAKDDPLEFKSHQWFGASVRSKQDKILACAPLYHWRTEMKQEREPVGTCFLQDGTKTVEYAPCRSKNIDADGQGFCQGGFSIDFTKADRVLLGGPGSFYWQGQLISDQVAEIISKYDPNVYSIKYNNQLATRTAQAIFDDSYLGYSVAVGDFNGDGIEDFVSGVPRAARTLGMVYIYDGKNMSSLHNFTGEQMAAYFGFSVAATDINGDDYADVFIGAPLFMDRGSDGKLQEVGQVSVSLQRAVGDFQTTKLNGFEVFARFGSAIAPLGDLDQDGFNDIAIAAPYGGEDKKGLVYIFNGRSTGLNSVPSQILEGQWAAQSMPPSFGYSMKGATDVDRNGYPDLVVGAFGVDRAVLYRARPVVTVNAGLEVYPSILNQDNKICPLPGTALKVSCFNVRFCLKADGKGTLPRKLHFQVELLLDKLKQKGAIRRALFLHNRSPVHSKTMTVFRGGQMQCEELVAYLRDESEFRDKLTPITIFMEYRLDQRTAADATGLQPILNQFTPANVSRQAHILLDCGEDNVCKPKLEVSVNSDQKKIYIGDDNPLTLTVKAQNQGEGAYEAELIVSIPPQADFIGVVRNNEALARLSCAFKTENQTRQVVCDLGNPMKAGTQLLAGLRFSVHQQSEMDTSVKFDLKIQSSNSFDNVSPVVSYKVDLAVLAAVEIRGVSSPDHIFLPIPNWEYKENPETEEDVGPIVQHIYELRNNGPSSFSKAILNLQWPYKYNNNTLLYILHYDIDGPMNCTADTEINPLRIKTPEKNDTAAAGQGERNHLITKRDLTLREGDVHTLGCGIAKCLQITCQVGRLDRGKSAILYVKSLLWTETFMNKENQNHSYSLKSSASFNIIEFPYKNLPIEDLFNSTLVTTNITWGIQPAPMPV
T2 sequence (Q0VBD0 43-681 limits assumed, chain 2 of 2): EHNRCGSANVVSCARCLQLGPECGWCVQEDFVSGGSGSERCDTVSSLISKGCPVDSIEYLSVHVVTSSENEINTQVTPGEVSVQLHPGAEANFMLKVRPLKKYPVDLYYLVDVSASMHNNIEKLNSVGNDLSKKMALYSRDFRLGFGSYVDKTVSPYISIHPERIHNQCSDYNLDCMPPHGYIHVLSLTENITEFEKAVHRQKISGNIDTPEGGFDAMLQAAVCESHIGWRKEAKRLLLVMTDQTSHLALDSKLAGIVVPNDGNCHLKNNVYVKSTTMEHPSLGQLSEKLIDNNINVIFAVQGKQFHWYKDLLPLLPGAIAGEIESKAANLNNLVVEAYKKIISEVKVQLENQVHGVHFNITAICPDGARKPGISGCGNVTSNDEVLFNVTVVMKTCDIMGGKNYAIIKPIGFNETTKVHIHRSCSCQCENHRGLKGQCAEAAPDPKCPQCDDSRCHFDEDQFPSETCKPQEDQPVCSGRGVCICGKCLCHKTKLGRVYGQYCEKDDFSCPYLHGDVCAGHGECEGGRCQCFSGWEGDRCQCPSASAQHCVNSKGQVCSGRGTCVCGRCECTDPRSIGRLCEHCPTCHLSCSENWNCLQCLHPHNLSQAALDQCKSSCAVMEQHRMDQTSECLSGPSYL

In the case of Isotype control (antibody), in test [1], the IC50 (nM), experiment #1: LN-229 + 3T3-Nano-human GARP/LTGFβ1 (WT) co-culture, NanoLuc reporter is greater than 333 nM; the IC50 (nM), experiment #2: LN-229 + 3T3-Nano-human GARP/LTGFβ1 (WT) co-culture, NanoLuc reporter is greater than 333 nM; the IC50 (nM), experiment #3: LN-229 + 3T3-Nano-human GARP/LTGFβ1 (non-releasable, NR) co-culture, NanoLuc reporter is greater than 333 nM; the IC50 (nM), experiment #4: LN-229 + 3T3-Nano-human GARP/LTGFβ3 (WT) co-culture, NanoLuc reporter is greater than 333 nM.
Regarding C6D4 mIgG2a.LALAPG (antibody), the IC50 of the TGFb1 reporter signal, co-culture of LN-229 cells with 3T3-Nano GARP/LTGFb1 reporter cells in [2] turned out to be 2.11 nM. For the same molecule, in [1], the IC50 (nM), experiment #1: LN-229 + 3T3-Nano-human GARP/LTGFβ1 (WT) co-culture, NanoLuc reporter is 0.63 nM; the IC50 (nM), experiment #2: LN-229 + 3T3-Nano-human GARP/LTGFβ1 (WT) co-culture, NanoLuc reporter was determined as 1.45 nM; the IC50 (nM), experiment #3: LN-229 + 3T3-Nano-human GARP/LTGFβ1 (non-releasable, NR) co-culture, NanoLuc reporter was 0.24 nM; the IC50 (nM), experiment #4: LN-229 + 3T3-Nano-human GARP/LTGFβ3 (WT) co-culture, NanoLuc reporter came to 0.78 nM. In [3], the Kd was found to be 1.06 nM, the koff worked out at 9.3e-05 s⁻¹ and the kon came out at 87800 M⁻¹ s⁻¹. Moreover, in test [4], the Kd came out at 3.8 nM, the koff was found to be 0.000266 s⁻¹ and the kon stood at 69900 M⁻¹ s⁻¹.
ADWA11 mIgG2a.LALAPG (antibody): in [1], the IC50 (nM), experiment #1: LN-229 + 3T3-Nano-human GARP/LTGFβ1 (WT) co-culture, NanoLuc reporter is 0.95 nM; the IC50 (nM), experiment #2: LN-229 + 3T3-Nano-human GARP/LTGFβ1 (WT) co-culture, NanoLuc reporter is 1.51 nM; the IC50 (nM), experiment #3: LN-229 + 3T3-Nano-human GARP/LTGFβ1 (non-releasable, NR) co-culture, NanoLuc reporter was 0.34 nM; the IC50 (nM), experiment #4: LN-229 + 3T3-Nano-human GARP/LTGFβ3 (WT) co-culture, NanoLuc reporter stood at 0.79 nM. In [3], the Kd was determined as 0.451 nM, the koff was 5.33e-05 s⁻¹ and the kon came to 118000 M⁻¹ s⁻¹.

B1: αvβ8-65 in the murine Fc format (antibody, V domains shown)
VH: EVQLLESGGGLVQPGGSLRLSCAASGIDLSNYAMIWVRQAPGKGLEWVGIISSSDRIWYASWVKGRFTISRDNSKNTLYLQMNSLRAEDTAVYYCSRSVSNSYFDGWNLWGQGTLVTVSS
VL: DIQMTQSPSSVSASVGDRVTITCQASENINSLLAWYQQKPGKAPKLLIYRASTLASGVPSRFSGSGSGTDFTLTISSLQPEDFATYYCQSNYGFTGSGAFFYGFGQGTKVEIK
As to B1, in [3], the Kd is less than 0.0258 nM and the kon was found to be 258000 M⁻¹ s⁻¹. Further, the koff in [5] is less than 1e-05 s⁻¹.

B2: Rb.aVb8-92 (antibody, V domains shown)
VH: QSVEESGGRLVTPGTPLTLTCTVSGFSLSSYAMGWVRQAPGKGLEWIGVIRKDDNTYYGNWAKGRFTISRTSTTVDLKMTSLTAADTATYFCARALNTYVGFPYFNIWGPGTLVTVSS
VL: AAVLTQTPSPVSAAVGGTVSISCQSIKSVGDNKWLAWYQQKPGQPPKLLIYDASDLASGVPSRFKGSGSRTQFTLTISDLQCDDAATYYCAGSVSSGDSGFGGGTEVVVA
notes: Recombinant rabbit monoclonal antibody expressed in Expi293 cells; also called rb.αvβ8-92; rabbit αvβ8-92
For B2, the Kd in test [6] was found to be 1.6 nM; in test [7], 1.86 nM; in [8], 6.91 nM; in [9], 671 nM. The koff was 0.000164 s⁻¹ in test [6], 0.000184 s⁻¹ in test [7], 0.000293 s⁻¹ in test [8] and 0.000777 s⁻¹ in test [9]. The kon is 102000 M⁻¹ s⁻¹ in test [6], 98600 M⁻¹ s⁻¹ in test [7], 42400 M⁻¹ s⁻¹ in test [8] and 1160 M⁻¹ s⁻¹ in test [9].

B3: Rb.aVb8-65 (antibody, V domains shown)
VH: QSVEESGGRLVTPGTPLTLTCTVSGIDLSNYAMIWVRQAPGKGLEWIGIISSSDRIWYASWVKGRFTISKTSSTTVDLQMTSLTTEDTATYFCSRSVSNSYFDGWNLWGPGTLVTVSS
VL: DIVMTQTPASVEAAVGGTVTIKCQASENINSLLAWYQQKPGQPPKLLIYRASTLASGVPSRFRGSGSGTQFTLTISDLECDDAATYYCQSNYGFTGSGAFFYGFGGGTEVVVE
notes: Recombinant rabbit monoclonal antibody expressed in Expi293 cells; also called rb.αvβ8-65; rabbit αvβ8-65
As to B3, the Kd in test [6] was determined as 0.7 nM; in [7], 0.9 nM; in test [8], 1.94 nM; in [10] it was 1.54 nM. Further, the koff in test [6] worked out at 0.000131 s⁻¹; in [7], 0.000132 s⁻¹; in [8] it was 0.000121 s⁻¹; in [10], 0.000349 s⁻¹. Further, the kon came to 187000 M⁻¹ s⁻¹ in test [6], 146000 M⁻¹ s⁻¹ in test [7], 62400 M⁻¹ s⁻¹ in test [8] and 227000 M⁻¹ s⁻¹ in [10].

In general, Kd refers to the equilibrium constant for the complex coming apart. One may read the koff as a measure of how fast the partners let go of each other. In general, kon refers to a measure of how fast the partners come together.
